The text below walks through data of a protein production outcome set (Wang et al. 2014).

The nature of the data set: label from the status in PepcDB records.
As to “MLRHIVLLILLSSEVRGVCNRIPQGASGPRSPVDDNFKILIDGNPETYVPEHQYNVSLSCPINMKFVSFTLVVEAEDPSAAFGGQDMTGHFELLGVGDTRFSTSCENMVENTNTNAKIYIAVSWIAPRNPDSGCVLIKAGVVQHRDVWFLDDGFLTKRICPEEIDELNSLTPPLETCCACDEAKYEIVLERKWARNTHWKDFPSEDWRTRLGEVIGASHSHSYRYWAYGGRASKGMKELAEHGATRTLENEIRENTQNGEVRTIIKAPGIPYRPKTFGTTLANARLDPVHHQISLAAKIDPSPDWILGVAGLELCLSNCTWLERKSSDEPQVPPDVVRRITSSYPSDHRSPFYDDTGAPMKPLATLYLTRKKLYIRECEEVLVPQEGPLECAVHPWNEWTNCSTRCGQGYSHRQRSFKNPNLAANFNCDRRLEEFRQCQGTQCGAAEEELEGEEPGLGMENPPSSGSMAECQLTNWGEWSPCTKTCGRGSSTRTRDYYNPQARQRCLSVMRIPLEETRECIGSDCGGTIPDNGELDGFPEPDVFGETDHGGYMGKTTSWNSKQEHSSLGSGNQAWNRKPYNSWKDKSLSNPRDNAQESPNLPFDQIENPQRPAYNPSDNMGGYDKGFPPTNSYSNDKLVGNRPGYNDFNSDYNNKDAYNDYTTPSFTSRTPFGSRYPNQQETVEGNTNDINGNYNVVQDYCFEKPYASTLPCFAKPVVESNYWFYDHEDHECKIFTTDNCDQNRNRFRTLTACEGTCLQPQINMERSENDAMDLYGRRSYDQKQTRDHISKQEVDPMINQKIGPMTYRQQEVDPMEKPVKQVILENPCRRPGADTTHPDAVGMAAEQIKAFKSPKLEENKY”, the protein production result is reported as “failed”.

On to “MAASLRSFLEQLKRQNSLYLVKKPVNPRFELGALLKKTKGTVPMFFQNIEGYDVPAVGGIVGTRENFAQALRINKSELLAKITEAITNPGETRLLPSGPVQENVLTKGFDIGKMFPIPTFHEKDSGAFITAGIVVAKDPIYGRRFTSIRRMQLNGPNNLSILIESPGLIEQYYEFERRGQAMEVAIVLGVHPAITLSSQLPTQTFGLDKYNVASRLIGEPLPVVKCKTIDLEVPADAEIVLEGRMLPYVRHPEGPFGELMGYYGPQTMQPVVEVTAVTFRNNPIFQVIFPSSYEHKLPNALMREVVLFNHVRHVVPTVQDVHLTMAGGGRCHAIISIKKTAEGQGKQAIFAALASNKDVKHVVVVNDDVDIFDPEDVEWAIATRVQADQDIIIIPGAQGTPLEPSHNLRGVSAKMGIDATYPLAEEERFARTQIPGYDQIRLEDYLTLDW”, for which the protein production result is “not failed”.

Regarding “MMSDLPRDLLEERLSRVPVKSLREARFTCKNWKTLSKKRSFTKKHLAQEATSRESEFKVVMVLHCKVYLTSINLRGIHNGFDPSINRQAKLVSLNGTDQIDISEVYHCDGLLLCISKDYTRVVVWNPYRSQTLWLKPSSPDHRMDWYICAIGYEKRKSSLRYKVLRFVDFAEEEFVEYEIYELKSNSWRVLDVTSDWEVEFYARGVSLKGNTYWFATDKFPEISSNLIHSVYFLLCFNFTSERFGPRLHLPCYPMDVDTVSLSSVREEQLAVLFQRKDNLHMEIWVTTKIEPEEVMWSKLFLAVDMQPLTDFKFGIADASFIIDEEKKVVVVFAKDKDVMYPTHNTAYIIGEDGYYKEVDLGKTTDKIRDPLVCSYVPSSAQIKQGGKRKKKGKLITD”, the protein production result is “failed”.

“MGTARTLTAAGGEPAFRGNDRLLLGIILGVLTFWLFAQTTLNIAPDMRRDLGTGESLMNIAVALTALFSGIFIVVMGGLADRVGRVRMVRLGFLASIAGSLLVGLAPAGGLAVAFLLAGRALQGLSGACIMPASLALVKAYWDGAERQRAISLWSIGSWGGSGVCSLFGGLVTQHLGWRWIFFASVLVAIAGLLLLRGTPESRAEGGAADYRFDLAGVLTFMVAMVALQVVVTQGNQLGWTSPASLGLVAATIVFGWLFLRIERRARSPFIDFGLFRSPTYTGATISNFLLNGVAGTLIVSLQLVQVGGGMSAQRAGVLTLGYAVAIIAFIRVGEKLLRRFGARRPMLWGCAITGASILLLAPSNVMLARYEVMAVIGYTLFGVGLAFYATPSTDAALSNLPASQAGAGSGLYKMASSLGAAFGVAISAAIFTALRAAPQSVSWLEGVITFQGRQDNLAVREAAIIALGFNELMVVVAIVSIVLTIPEGERRQGA”: the protein production result is listed as “failed”.

As for “MQPEITSYRHPATGTVSYLVVDPATFLCAIVDPVLDFDPVTEEIDTRFVDAIIADIRAKDLGPTWILETGLHTGHLSAAGHLKYETGASVCIGAGVVESLKRLAPQFGETMVDLDGWDFDKLAQDGDTFPMGGLEITPIALTGRLPGAVAYRMADMVFTGDLVLAPAEGSGRCDIPGADAGKAWDDARKILALPPETRIMPGVSATAACESTVADAKASNIQLNDTIDQLDFIALRTAADAFLPDPELAAAALRVAIRAGRPPSPPESGPRFPAVDLSKL”, the protein production result is “failed”.

For “MRGSVPSVREIETLLSQLPWRQFQSPRVHLEQYTTPVHLAARIAHHVALCIDEDERRSVQAVDLGTGTGILALALCLAGLNHVLGVDVDSEALELARANAAALWELCPQSVGAVLEFAAVDVQPNSLALAPKSFDVAVLNPPFGTRQRSADIAFLDVACHLSRRFVYSLHKSSTRSYLSRRLERFGCTAQVYARLRFDLPATYVFHRERAVDIDVDLWQIEVKR”, the protein production result is “not failed”.

As to “GRRFVMVPGIGGSGPEHWQSHWESLYPNTLRIEPNSWDEPDLADWFAALDRAVAAAPYPPVLVCHSLGCLLFAHWRAASSRAIAAAFLVAVPDPSGPAFPAQAKAFGALPATGFGERPVLAVASENDPYDPEASAIAWAVRQGAWPRRLGPRGHLNEASNIGAWPEGQELLADFLDKIGE”, the protein production result is recorded as “failed”.

On to “KNVVHQLSVTLEDLYNGATRKLALQKNVICDKCEGRGGKKGAVECCPNCRGTGMQIRIHQIGPGMVQQIQSVCMECQGHGERISPKDRCKSCNGRKIVREKKILEVHIDKGMKDGQKITFHGEGDQEPGLEPGDIIIVLDQKDHAVFTRRGEDLFMCMDIQLVEALCGFQKPISTLDNRTIVITSHPGQIVKHGDIKCVLNEGMPIYRRPYEKGRLIIEFKVNFPENGFLSPDKLSLLEKLLPERKEVEETDEMDQVELVDFDPNQERRRHYNGEAYEDDEHHPRGGVQCQTS”, for which the protein production result is listed as “failed”.

Take “MKKMLKVMLATLVLGWAVMAHAEDPHVEYTDAIGKGDLKVVKQYFNNPYKVDELFFAWSGLEIAANKGQLEMVKFFVENGADVNYKHPITKMTALHLAAYQGNKDVVKYLIDHGADVNAKLRGNVSILRALRDEGRTDMVDFLIAAGAKDDGCQEKKCY”: the protein production result is “failed”.

On to “MFVFGAYWFDCGERAVLPANSRGALRPQCTRLRFWRGRYWHRGAVSALRRVRPLSASTPSPRVLDGSQSLADTPDNVQQLLQHMSQELDSVVQSMVHLEEYALEQVEKLKGAMEADLRKLALYEEEQAFAQKLTEQLQKKEGAVFEAMRHFLFHVVGLQEQTVAITNELQVLHEFVSENHERVELVLESLRERGLFGSRQDVFEGEVKKKLDRFDPEI”, for which the protein production result is listed as “failed”.

Regarding “MTAQKMSAQEIIAFIGNAEKKTNVKVTFEGALAAALPENVVKLGNVLFGDWKDIEPLLANLTENKDYVVEQDGRNSAVPLLDK”, the protein production result was “not failed”.

Take “MTAVRRIRAAALPDLPDASWSNALLVGEELVMSGMTAHPATRQAAERGAALDAHAQALVVLGKVKALLEAAGGHVGNLYKLNVYVTRIADKDAIGRARQEFFAGQGTFPASTLVEVSGLVFPELLVEIDAWARLDIDLANCDEA”: the protein production entry is listed as “not failed”.

With “MNIVENEICIRTLIDDDFPLMLKWLTDERVLEFYGGRDKKYTLESLKKHYTEPWEDEVFRVIIEYNNVPIGYGQIYKMYDELYTDYHYPKTDEIVYGMDQFIGEPNYWSKGIGTRYIKLIFEFLKKERNANAVILDPHKNNPRAIRAYQKSGFRIIEDLPEHELHEGKKEDCYLMEYRYDDNATNVKAMKYLIEHYFDNFKVDSIEIIGSGYDSVAYLVNNEYIFKTKFSTNKKKGYAKEKAIYNFLNTNLETNVKIPNIEYSYISDELSILGYKEIKGTFLTPEIYSTMSEEEQNLLKRDIASFLRQMHGLDYTDISECTIDNKQNVLEEYILLRETIYNDLTDIEKDYIESFMERLNATTVFEGKKCLCHNDFSCNHLLLDGNNRLTGIIDFGDSGIIDEYCDFIYLLEDSEEEIGTNFGEDILRMYGNIDIEKAKEYQDIVEEYYPIETIVYGIKNIKQEFIENGRKEIYKRTYKD”, the protein production entry is on record as “failed”.

On to “MTPEIAIGLVTALGLGALVGLERQWRQRSSGMATHAMVALGAASFSILPLLLDNEVSVTRMAAQVVSGIGFLGAGVIMRDGLSVRGLSTAASIWSTGAIGVLAGSGFILAACMTTALIVIANLFLPALGRVVDRHTSGEAEQERFYQISVSCEARNEALVRMQLLQRMGDNRLNLQSLESHALKGSGNVEVNAVVFTLHKEDSLVEQMVGELCLAPQVTAASWVMNPAAE”, for which the protein production entry is given as “failed”.

Take “MAPEMNNKLSYGEKKRAYVTFLAGTGDYVKGVVGLAKGLRKTKSKYPLVVAVLPDVPADHRRQLLDQGCVIKEIQPVYPPDNQTQFAMAYYVLNYSKLRIWKFVEYSKLIYLDGDIQVFENIDHLFDLPDGNFYAVKDCFCEKTWSHTPQYKIGYCQQCPDKVTWPESELGPKPPLYFNAGMFVYEPSLPTYYNLLETLKVVPPTPFAEQDFLNMYFKDIYKPIPPVYNLVLAMLWRHPENIELNEAKVVHYCAAGAKPWRFTGQEGNMEREDIKMLVEKWWDIYNDESLDYKNFNVHCGQKEDVHRKPKTLPQFFTDLSEADVLQCAKAPSAA”: the protein production entry is recorded as “failed”.

In the case of “MSWFDDLFSNKENSDEELLRRKSKRRNGDLTQNKDDSLLPENNDIYDRPRGKFRFPIDVGQDENYEEAIYRDSNDDIGSYRPHSSNDHSSYDSFDYDGHTNQSNNYAKYDSSEDSRRRRRRNHINQDDTGIPSIKSRSPKSSNKYIDTRESQRFNKHQNNYSSTNVSNYSKANSNHQSRVKLQSERFKSNYHLSSEPTYHRSSFKTSEVPSAIFGTKKRRPIENGVIPPVKDDEDSKESITKYSSSTVEHVPHESNHAIADNSNKEDTKRSSQLDSSITIENESTIESSSNTSNNNERTPNYSKRDNTVNIENIYASQIVEEIRKERERKVQQKRKFKEALQNKRQQTDEEDSIQRAIDEMYAKQAEQYTGESSLNQGDNVSNKSNESEIDKSKHSYHSKDKSLVDEHNGLVQNQTDEQTNSDNVDNQTEVSNESHEPYNYEEIDLNQVSSVQQVRQDDVQVKDVLEEQSSKINNNKVESYSNEKFDDYLEDTNSHEEMLHDDDLHEQVMDDDENEGISNKTTDENNDEKIDDANYREINESESLMQDKANDLKFNDEVNNSENQQNSSENNINNAVRNAVSSDIEYATNEDEENDERLAQDTNKEDQKLSQSEDIQHESLNNEDVSLTSNKTDDSEHLEKDSLNEDKKAEPSFNKTNKAPQKMSIKPGSKPFNVVMTPSDKKRVMDAKKNSVSRNKVNVPELKPETKKEAQDEKMNAEFDNHLNESQLNSDESSDFNVASLEYNESSEHSVEKDNIINDENTRENEHQDVDNSQNNDMPKGNQFSKVQNSNNQNDNKHDINEFVSKEGYSEVTSTKNHKDGDDANHKAPIRRGPNIKLPSLDLLEDHEEHEIDESWIEEKKQELNDAFYYFNVPAEVQNVTEGPSVTRFELAVEKGVKVSRITALQDDIKMALAAKDIRIEAPIPGTSLVGIEVPNLNPTKVNLKSILESPKFKNAESKLTVAMGNRINNEPLLMDIAKTPHALIAGATGSGKSVCINSILMSLLYKNHPEELRLLLIDPKMVELAPYNDLPHLVSPVITDVKAATQSLKWAVDEMEKRYKLFAQFHVRNITAFNKKAPYEQRMPKIVIVIDELADLMMMAPQEVEQSIARIAQKARACGIHMLVATQRPSVNVITGLIKANIPTRIAFMVSSSVDSRTILDSGGAERLLGYGDMLYLGSGMNKPIRVQGTFVSDDEIDDVVDFIKDQREPDYLFEEKELLKKNQTQAQDELFDDVCEFMVKEGHISTSLIQRHFQIGYNRAARIVDQLEQLDYISGANGSKPRDVFITEADLKKE”, the protein production result is “failed”.
